Paper PMC9133651, “Elucidation of physico-chemical principles of high-density lipoprotein–small RNA binding interactions”

What was measured:
Experiment in all cases: MST
Details in all cases: MST: 100 nM AF647 oligo (90 C 2 min, cooled) mixed 1:1 with ligand in PBS, RT, 5 min; EMSA: 1 uM AF546 oligo, UV 254 nm 15 min on ice, 4-16% NativePAGE, 0.5x …
[1] = biological target: native HDL (DGUC-HDL, apoA-I-containing lipoprotein particle) (Homo sapiens) (UniProt P02647)
[2] = biological target: native HDL (DGUC-HDL, apoA-I-containing lipoprotein particle) (Homo sapiens) (UniProt P02647); remark: listed apart in the source
[3] = biological target: native HDL (DGUC-HDL, apoA-I-containing lipoprotein particle) (Homo sapiens) (UniProt P02647); remark: listed apart in the source
[4] = biological target: native HDL (DGUC-HDL, apoA-I-containing lipoprotein particle) (Homo sapiens) (UniProt P02647); remark: listed apart in the source

Sequence of native HDL (DGUC-HDL, apoA-I-containing lipoprotein particle) (Homo sapiens) (P02647 whole entry): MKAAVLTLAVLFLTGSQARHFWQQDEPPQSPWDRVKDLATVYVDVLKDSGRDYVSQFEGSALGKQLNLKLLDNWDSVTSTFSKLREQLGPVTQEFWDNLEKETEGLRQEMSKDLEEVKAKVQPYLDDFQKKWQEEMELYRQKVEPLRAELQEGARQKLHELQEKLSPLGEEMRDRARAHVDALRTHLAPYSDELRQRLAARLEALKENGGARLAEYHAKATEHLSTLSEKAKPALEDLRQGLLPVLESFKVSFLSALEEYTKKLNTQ

Sequence | Kd [1] | Kd [2] | Kd [3] | Kd [4]
GCAUUGGUGGUUCAG [tDR-GlyGCC-5'-tRH-5'tRF-15] | 115 nM |  |  | 
GCAUUGGUGGUUCAGUGGUAGAAUUCUCGC / GCGAGAAUUCUACCACUGAACCACCAAUGC [dsRNA-tDR-GlyGCC-30] |  | 972 nM |  | 
GCAUUGGUGGUUCAGUGGUAGAAUUCUCGC [tDR-GlyGCC-30 (5'-tRH-30)] | 16 nM | 153 nM | 259 nM | 54 nM
GCGCCGCUGGUGUAGUGGUAUCAUGCAAGA [tDR-GlyCCC-30] |  |  | 34000 nM | 
CUGCCACGCGGGAGGCCCGGGUUCGAUUCC [tDR-GlyGCC-3'-tRH-30] | 85 nM |  |  | 
CCGGCUAGCUCAGUCGGUAGAGCAUGAGAC [tDR-LysCTT-30] |  |  | 3800 nM | 
UGGUAGAAUUCUCGC [tDR-GlyGCC-5'-tRH-3'-tRF-15] | 124 nM |  |  | 
